The sequences below were run on Escherichia coli TOP10 (assay: shrunken log2 fold change of peptide-encoding DNA abundance (4.5 h post-induction vs induction); higher = less antimicrobial activity (less host growth inhibition)). Settings: time post-induction: 4.5 h; library: site-saturation at positions 5, 18, 19, 20.
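Note: peptides expressed intracellularly from a pBAD plasmid library in pooled LB shake-flask culture, induced with 0.3% L-arabinose, DNA abundance read by NGS, three biological replicates, DESeq2 with apeglm shrinkage.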

Row | Sequence | shrunken log2 fold change
1 | RRIRKRPPRLPRPRPRPQPSPRP | 0.567
2 | RRIRMRPPRLPRPRPRPWFVPRP | -0.283
3 | RRIRMRPPRLPRPRPRPRDMPRP | 0.316
4 | RRIRRRPPRLPRPRPRPSGVPRP | -0.181
5 | RRIRHRPPRLPRPRPRPWSAPRP | -0.547
6 | RRIRARPPRLPRPRPRPRSFPRP | 0.202
7 | RRIRPRPPRLPRPRPRPPHVPRP | 0.782
8 | RRIRFRPPRLPRPRPRPRVWPRP | 0.963
9 | RRIRHRPPRLPRPRPRPSPPPRP | -0.0717
10 | RRIRIRPPRLPRPRPRPQDVPRP | -0.0964
11 | RRIRDRPPRLPRPRPRPIPCPRP | -0.0802
12 | RRIRFRPPRLPRPRPRPKGGPRP | 0.00425
13 | RRIRERPPRLPRPRPRPQIGPRP | -0.0217
14 | RRIRPRPPRLPRPRPRPMNTPRP | -0.0416
15 | RRIRYRPPRLPRPRPRPEMYPRP | -0.0203
16 | RRIRKRPPRLPRPRPRPRDTPRP | 0.258
17 | RRIRPRPPRLPRPRPRPVEIPRP | 0.26
18 | RRIRFRPPRLPRPRPRPSDNPRP | -0.527
19 | RRIRERPPRLPRPRPRPPANPRP | 0.0983
20 | RRIRVRPPRLPRPRPRPSVDPRP | -0.193

Row | Sequence | shrunken log2 fold change
21 | RRIRSRPPRLPRPRPRPSAHPRP | 0.0639
22 | RRIRMRPPRLPRPRPRPTKTPRP | 0.334
23 | RRIRMRPPRLPRPRPRPAQFPRP | -0.107
24 | RRIRDRPPRLPRPRPRPYMCPRP | -0.0331
25 | RRIRYRPPRLPRPRPRPCWFPRP | -0.0378
26 | RRIRNRPPRLPRPRPRPICWPRP | -0.0674
27 | RRIRERPPRLPRPRPRPIPMPRP | -0.136
28 | RRIRSRPPRLPRPRPRPDKGPRP | -0.108
29 | RRIRKRPPRLPRPRPRPVNKPRP | 0.22
30 | RRIRTRPPRLPRPRPRPEQDPRP | 0.0235
31 | RRIRPRPPRLPRPRPRPSENPRP | -0.0512
32 | RRIRARPPRLPRPRPRPNGLPRP | -0.0319
33 | RRIRSRPPRLPRPRPRPNMNPRP | -0.573
34 | RRIRTRPPRLPRPRPRPAILPRP | -0.157
35 | RRIRVRPPRLPRPRPRPVIWPRP | 0.286
36 | RRIRRRPPRLPRPRPRPITWPRP | -0.0299
37 | RRIRFRPPRLPRPRPRPEKNPRP | -0.0204
38 | RRIRLRPPRLPRPRPRPASYPRP | -0.308
39 | RRIRCRPPRLPRPRPRPMRVPRP | 0.839
40 | RRIRVRPPRLPRPRPRPAPQPRP | 0.618

Row | Sequence | shrunken log2 fold change
41 | RRIRIRPPRLPRPRPRPPAEPRP | 0.583
42 | RRIRQRPPRLPRPRPRPTLQPRP | 0.276
43 | RRIRWRPPRLPRPRPRPEHYPRP | -1.14
44 | RRIRNRPPRLPRPRPRPAWVPRP | 0.147
45 | RRIRERPPRLPRPRPRPFSQPRP | -0.347
46 | RRIRGRPPRLPRPRPRPRFDPRP | 0.382
47 | RRIRRRPPRLPRPRPRPSWRPRP | 0.355
48 | RRIRTRPPRLPRPRPRPNEQPRP | -0.0135
49 | RRIRFRPPRLPRPRPRPHHNPRP | -0.754
50 | RRIRVRPPRLPRPRPRPFPHPRP | -0.366
51 | RRIRYRPPRLPRPRPRPTHRPRP | -0.1
52 | RRIRARPPRLPRPRPRPWFRPRP | 0.133
53 | RRIRDRPPRLPRPRPRPTFAPRP | 0.454
54 | RRIRNRPPRLPRPRPRPILVPRP | -0.0115
55 | RRIRPRPPRLPRPRPRPWNLPRP | -0.365
56 | RRIRSRPPRLPRPRPRPAKTPRP | 0.111
57 | RRIRCRPPRLPRPRPRPANGPRP | -0.0497
58 | RRIRGRPPRLPRPRPRPHWMPRP | 0.0496
59 | RRIRARPPRLPRPRPRPKCIPRP | 0.0328
60 | RRIRNRPPRLPRPRPRPKEDPRP | 0.0361

Source: the supplement of paper PMC9112550, “Optimization of the antimicrobial peptide Bac7 by deep mutational scanning” (BMC Biology, 2022)
